Values of other authors as cited in publication PMC3394898.

Molecular target: NTSR1 (Mus musculus) (UniProt O88319)
Chain of UniProt O88319 (O88319 whole entry): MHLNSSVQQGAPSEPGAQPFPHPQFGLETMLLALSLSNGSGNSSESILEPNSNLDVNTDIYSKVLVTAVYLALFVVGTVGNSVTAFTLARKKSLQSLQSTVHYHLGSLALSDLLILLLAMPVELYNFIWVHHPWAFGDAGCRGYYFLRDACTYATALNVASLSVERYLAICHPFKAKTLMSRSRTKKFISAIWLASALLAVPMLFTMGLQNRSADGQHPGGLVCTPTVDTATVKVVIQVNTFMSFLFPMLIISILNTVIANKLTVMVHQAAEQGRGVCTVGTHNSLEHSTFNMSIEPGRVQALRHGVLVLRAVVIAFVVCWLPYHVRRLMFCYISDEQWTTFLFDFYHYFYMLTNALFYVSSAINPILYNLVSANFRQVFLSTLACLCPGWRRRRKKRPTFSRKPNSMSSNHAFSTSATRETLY

Kd: 5 nM
Substance: neurotensin (NTS) (from UniProt P30990)
